Results taken from US20180305451A1.

What was measured:
[1] = biological target: putative molecular counterpart of HIDE1 on T cells; assay: FACS, tetramer on CD4+ T cells activated for 72 h
[2] = biological target: putative molecular counterpart of HIDE1 on T cells; assay: flow cytometry on H9 human T cell line, live singlets; PE tetramer at 3 µg/well (60 µg/ml)
[3] = biological target: putative molecular counterpart of HIDE1 on T cells; assay: flow cytometry on U937 human myeloid cell line, live singlets; PE tetramer at 3 µg/well (60 µg/ml); the text calls this no binding; Tetramer-EGFR in the same box reads 79.6
[4] = biological target: putative molecular counterpart of HIDE1 on T cells; assay: flow cytometry on H9 human T cell line, live singlets; negative control PE tetramer at 3 µg/well (60 µg/ml)

fold increase in the Geo Mean compared to EGFR negative control [1] [fold]	Geometric Mean (B2-A) [2]	Geometric Mean (B2-A) [3]	Geometric Mean (B2-A) [4]	Substance
3	731	86.2		HIDE1 tetramer (from UniProt A8MVS5 20-117)
			82.1	Tetramer-EGFR (from UniProt P00533)
